Reference: article PMC9103234

Biological target: CD20 on the surface of Raji cells (human (endogenous in Raji)) (UniProt P11836)
Sequence of UniProt P11836 (P11836 whole entry): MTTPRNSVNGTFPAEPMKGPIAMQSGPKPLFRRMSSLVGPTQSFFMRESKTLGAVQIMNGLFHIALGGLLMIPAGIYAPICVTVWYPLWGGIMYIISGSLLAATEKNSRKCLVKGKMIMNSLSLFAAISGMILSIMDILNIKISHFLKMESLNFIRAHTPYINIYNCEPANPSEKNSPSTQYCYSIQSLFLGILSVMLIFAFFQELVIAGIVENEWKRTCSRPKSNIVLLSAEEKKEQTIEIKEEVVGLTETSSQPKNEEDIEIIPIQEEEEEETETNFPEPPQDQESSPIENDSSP

Q: Which EC50 of complement-dependent cytotoxicity on Raji cells (LDH release, guinea-pig complement) does the source give for rituximab (antibody) here?
A: 0.88 nM
